Laboratory results reported in PMC7435202 (Nature Communications, 2020).

Target: the molecule itself
Test: cryo-EM structure; native full-length gB with 93k Fab fragments added in molar excess, overnight at +4 °C; Amphipol 8-35, TBS pH7.4, Superose-6; single particle, C3 symmetry imposed

B1: native, full-length VZV glycoprotein B (gB) purified from VZV-infected MeWo cells (natural protein, UniProt Q4JR05 72-931, looked up)
chain: VSPSSFYESLQVEPTQSEDITRSAHLGDGDEIREAIHKSQDAETKPTFYVCPPPTGSTIVRLEPPRTCPDYHLGKNFTEGIAVVYKENIAAYKFKATVYYKDVIVSTAWAGSSYTQITNRYADRVPIPVSEITDTIDKFGKCSSKATYVRNNHKVEAFNEDKNPQDMPLIASKYNSVGSKAWHTTNDTYMVAGTPGTYRTGTSVNCIIEEVEARSIFPYDSFGLSTGDIIYMSPFFGLRDGAYREHSNYAMDRFHQFEGYRQRDLDTRALLEPAARNFLVTPHLTVGWNWKPKRTEVCSLVKWREVEDVVRDEYAHNFRFTMKTLSTTFISETNEFNLNQIHLSQCVKEEARAIINRIYTTRYNSSHVRTGDIQTYLARGGFVVVFQPLLSNSLARLYLQELVRENTNHSPQKHPTRNTRSRRSVPVELRANRTITTTSSVEFAMLQFTYDHIQEHVNEMLARISSSWCQLQNRERALWSGLFPINPSALASTILDQRVKARILGDVISVSNCPELGSDTRIILQNSMRVSGSTTRCYSRPLISIVSLNGSGTVEGQLGTDNELIMSRDLLEPCVANHKRYFLFGHHYVYYEDYRYVREIAVHDVGMISTYVDLNLTLLKDREFMPLQVYTRDELRDTGLLDYSEIQRRNQMHSLRFYDIDKVVQYDSGTAIMQGMAQFFQGLGTAGQAVGHVVLGATGALLSTVHGFTTFLSNPFGALAVGLLVLAGLVAAFFAYRYVLKLKTSPMKALYPLTTKGLKQLPEGMDPFAEKPNATDTPIEEIGDSQNTEPSVNSGFDPDKFREAQEMIKYMTLVSAAERQESKARKKNKTSALLTSRLTGLALRNRRGYSRVRTENVTGV
notes: Varicella-zoster virus glycoprotein B, 931 amino acids, ORF31, strain pOka; cleaved by furin: both uncleaved (130 kDa) and cleaved (65 kDa) gB are present; also called native gB; full-length gB
stoichiometry N: 3
